Data published in publication PMC9989923, “A curcumin analogue GO‐Y030 depletes cancer stem cells by inhibiting the interaction between the HSP70/HSP40 complex and its substrates” (FEBS Open Bio, 2023).

Assays:
[1] = target: T1, recombinant human HSP40/Hdj1 (dnaJ‐B1) protein (human, UniProt P25685 1-340); test: ELISA; substrate-binding assay: CMLA immobilised at 500 ng per well; 50 ng per well HSP70-1A or dnaJ-B1 in 20 mM Tris-HCl pH 7.5, 20 mM NaCl, 10 mM MgCl2, 0.2% BSA, 60 min at 30 °C; detected with anti-HSP70 or anti-DNAJB1 pAb and alkaline phosphatase-labelled secondary antibody; with dimethylsulfoxide, GO-Y030 or PFT-μ; conditions: both partners purified
T1 construct: recombinant human HSP40/Hdj1 (dnaJ-B1, gene DNAJB1), bought from Enzo Life Sciences; No catalogue number printed; source: bought: Enzo Life Sciences
T1 sequence (P25685 whole entry): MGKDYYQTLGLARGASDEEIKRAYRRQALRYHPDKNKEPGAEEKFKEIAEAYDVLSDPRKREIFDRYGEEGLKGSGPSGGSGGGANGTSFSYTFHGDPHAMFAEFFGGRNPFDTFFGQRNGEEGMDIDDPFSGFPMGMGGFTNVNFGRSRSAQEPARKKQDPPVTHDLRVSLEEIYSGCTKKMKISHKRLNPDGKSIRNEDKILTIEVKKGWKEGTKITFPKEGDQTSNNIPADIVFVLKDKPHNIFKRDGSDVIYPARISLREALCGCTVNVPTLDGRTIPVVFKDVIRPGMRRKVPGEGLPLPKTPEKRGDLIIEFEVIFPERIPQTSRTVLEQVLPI

[2] = target: T2, recombinant human HSP70‐1A protein (human, UniProt P0DMV8 1-641); test: as above; conditions: both partners purified
T2 construct: recombinant human HSP70-1A (gene HSPA1A), bought from StressMarq Biosciences; No catalogue number printed; source: bought: StressMarq Biosciences
T2 sequence (P0DMV8 whole entry): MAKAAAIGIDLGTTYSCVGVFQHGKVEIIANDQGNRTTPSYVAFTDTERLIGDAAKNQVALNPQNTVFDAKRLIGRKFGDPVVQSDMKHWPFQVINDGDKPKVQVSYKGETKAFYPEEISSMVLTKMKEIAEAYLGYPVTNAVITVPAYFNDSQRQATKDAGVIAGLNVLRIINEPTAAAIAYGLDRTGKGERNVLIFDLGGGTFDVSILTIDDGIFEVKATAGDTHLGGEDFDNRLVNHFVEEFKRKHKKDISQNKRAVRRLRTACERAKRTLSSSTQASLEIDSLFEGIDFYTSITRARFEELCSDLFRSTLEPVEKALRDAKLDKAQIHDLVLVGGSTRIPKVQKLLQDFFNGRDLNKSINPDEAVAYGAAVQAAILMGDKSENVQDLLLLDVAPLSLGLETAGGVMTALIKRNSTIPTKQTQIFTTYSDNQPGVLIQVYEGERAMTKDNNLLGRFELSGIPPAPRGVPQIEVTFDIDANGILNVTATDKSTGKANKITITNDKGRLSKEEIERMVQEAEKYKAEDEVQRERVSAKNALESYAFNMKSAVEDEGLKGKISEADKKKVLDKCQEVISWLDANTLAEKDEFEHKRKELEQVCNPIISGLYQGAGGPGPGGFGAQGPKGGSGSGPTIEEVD

binding result [1]: binds | binding result [2]: binds
B1: carboxymethylated α‐lactalbumin (natural protein, bovine, UniProt P00711 20-142, looked up)
chain: EQLTKCEVFRELKDLKGYGGVSLPEWVCTTFHTSGYDTQAIVQNNDSTEYGLFQINNKIWCKDDQNPHSSNICNISCDKFLDDDLTDDIMCVKKILDKVGINYWLAHKALCSEKLDQWLCEKL
modifications: reduced with 20 mM dithiothreitol in 8 M urea and alkylated with 40 mM iodoacetamide (called carboxymethylated); permanently unfolded
notes: also called CMLA; carboxymethylated lactalbumin; source: bovine α-lactalbumin bought: Sigma-Aldrich; reduced in 8 M urea with dithiothreitol, alkylated with iodoacetamide, dialysed against PBS
